Laboratory results published in patent publication US20220275092A1 (F STAR THERAPEUTICS, published 2022).

What was measured:
mouse LAG-3 = target: T1, mouse LAG-3 (mouse, UniProt Q61790 24-442, limits assumed); assay: Biacore (SPR)
T1 construct: also called mLAG-3
T1 sequence (looked up): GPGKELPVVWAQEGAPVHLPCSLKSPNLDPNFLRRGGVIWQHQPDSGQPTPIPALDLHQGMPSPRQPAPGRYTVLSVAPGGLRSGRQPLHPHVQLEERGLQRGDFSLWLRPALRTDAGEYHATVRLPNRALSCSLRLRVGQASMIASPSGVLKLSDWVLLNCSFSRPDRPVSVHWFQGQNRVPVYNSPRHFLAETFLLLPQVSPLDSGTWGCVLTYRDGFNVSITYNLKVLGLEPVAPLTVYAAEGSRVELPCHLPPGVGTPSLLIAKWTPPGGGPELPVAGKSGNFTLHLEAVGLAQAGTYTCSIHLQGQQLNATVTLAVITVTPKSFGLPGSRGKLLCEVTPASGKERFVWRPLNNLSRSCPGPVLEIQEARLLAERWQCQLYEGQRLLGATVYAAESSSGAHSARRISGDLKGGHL

mouse PD-L1 = target: T2, mouse PD-L1 (mouse, UniProt Q9EP73 19-239, limits assumed); assay: Biacore (SPR)
T2 construct: also called mPD-L1
T2 sequence (Q9EP73 19-239 limits assumed): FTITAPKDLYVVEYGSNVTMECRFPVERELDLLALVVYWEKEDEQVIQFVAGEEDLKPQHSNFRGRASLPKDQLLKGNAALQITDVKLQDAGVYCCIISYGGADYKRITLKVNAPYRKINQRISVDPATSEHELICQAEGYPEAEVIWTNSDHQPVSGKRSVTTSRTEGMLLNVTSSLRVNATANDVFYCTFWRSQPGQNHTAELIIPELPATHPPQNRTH

B1: anti-mouse LAG-3/PD-L1 mAb^2 FS18-7-108-29/S1 (with LALA mutation) (bispecific antibody, V domains shown)
VH: not shown
VL: DIQMTQSPSSLSASVGDRVTITCRASQDVSTAVAWYQQKPGKAPKLLIYSASFLYSGVPSRFSGSGSGTDFTLTISSLQPEDFATYYCQQYLFTPPTFGQGTKVEIKR
notes: also called mouse surrogate mAb^2; mLAG-3/PD-L1
- Biacore binding affinity, fold lower than the binding of FS118 to hLAG-3 (mouse LAG-3): ~20 fold
- Biacore binding affinity, fold higher than the binding of FS118 to hPD-L1 (mouse PD-L1): ~10 fold
